Consider three sequences from the supplement of paper PMC5998384.

The subject of data set [1] is HeLa Kyoto. In words: solubility in G1/S (NP-40 vs SDS abundance) (log2 ratio); higher = more soluble. The settings on record: cell cycle stage: G1/S.
Data set [2] deals with HeLa Kyoto. In words: melting temperature (median over replicates), in situ; higher = more thermally stable.
The subject of data set [3] is HeLa Kyoto. In words: solubility change mitosis vs G1/S (difference of NP-40 vs SDS log2 ratios) (log2 ratio difference); higher = more soluble in mitosis.
Data set [4] relates to HeLa Kyoto. Nature of the data set: thermal stability score vs G1/S (z-score of summed log2 fold changes over temperatures); higher = more thermally stable than in G1/S.
The mark [5] stands for this setting: cell cycle stage: early G1 (4.5 h after nocodazole release).
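Throughout, for melting temperature (median over replicates), in situ: HeLa Kyoto cells synchronized by double thymidine or nocodazole block, proteins quantified by TMT10plex mass spectrometry, three independent biological replicates.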
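Throughout, for solubility change mitosis vs G1/S (difference of NP-40 vs SDS log2 ratios): synchronized HeLa Kyoto cells (double thymidine block for G1/S, nocodazole release for mitosis), protein amounts in NP-40 versus SDS lysates quantified by mass spectrometry, three biological replicates.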
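Throughout, for solubility in G1/S (NP-40 vs SDS abundance): HeLa Kyoto cells arrested at G1/S by double thymidine block, proteins quantified by TMT10plex mass spectrometry in mild NP-40 versus SDS extracts, three biological replicates.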
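Throughout, for thermal stability score vs G1/S (z-score of summed log2 fold changes over temperatures): synchronized HeLa Kyoto cells, proteins quantified by TMT10plex mass spectrometry, three biological replicates, mitosis taken 0.5 h after nocodazole release, G1/S directly after double thymidine block.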

For “MAAKGAHGSYLKVESELERCRAEGHWDRMPELVRQLQTLSMPGGGGNRRGSPSAAFTFPDTDDFGKLLLAEALLEQCLKENHAKIKDSMPLLEKNEPKMSEAKNYLSSILNHGRLSPQYMCEAMLILGKLHYVEGSYRDAISMYARAGIDDMSMENKPLYQMRLLSEAFVIKGLSLERLPNSIASRFRLTEREEEVITCFERASWIAQVFLQELEKTTNNSTSRHLKGCHPLDYELTYFLEAALQSAYVKNLKKGNIVKGMRELREVLRTVETKATQNFKVMAAKHLAGVLLHSLSEECYWSPLSHPLPEFMGKEESSFATQALRKPHLYEGDNLYCPKDNIEEALLLLLISESMATRDVVLSRVPEQEEDRTVSLQNAAAIYDLLSITLGRRGQYVMLSECLERAMKFAFGEFHLWYQVALSMVACGKSAYAVSLLRECVKLRPSDPTVPLMAAKVCIGSLRWLEEAEHFAMMVISLGEEAGEFLPKGYLALGLTYSLQATDATLKSKQDELHRKALQTLERAQQLAPSDPQVILYVSLQLALVRQISSAMEQLQEALKVRKDDAHALHLLALLFSAQKHHQHALDVVNMAITEHPENFNLMFTKVKLEQVLKGPEEALVTCRQVLRLWQTLYSFSQLGGLEKDGSFGEGLTMKKQSGMHLTLPDAHDADSGSRRASSIAASRLEEAMSELTMPSSVLKQGPMQLWTTLEQIWLQAAELFMEQQHLKEAGFCIQEAAGLFPTSHSVLYMRGRLAEVKGNLEEAKQLYKEALTVNPDGVRIMHSLGLMLSRLGHKSLAQKVLRDAVERQSTCHEAWQGLGEVLQAQGQNEAAVDCFLTALELEASSPVLPFSIIPREL [TTC7A]”, in the data set with HeLa Kyoto [1], the “solubility in G1/S (log2)” value stood at 0.161. Moreover, in the data set on HeLa Kyoto [2] (cell cycle stage: G1/S), the melting temperature came out at 51.2 °C. For the same sequence, in the data set on HeLa Kyoto [3], the “solubility change mitosis (log2)” value is -0.168. The thermal stability score in the data set with HeLa Kyoto [4] (setting [5]) was 0.0827; with HeLa Kyoto [4] (cell cycle stage: mitosis), -0.515.
With “MSKRLRSSEVCADCSGPDPSWASVNRGTFLCDECCSVHRSLGRHISQVRHLKHTPWPPTLLQMVETLYNNGANSIWEHSLLDPASIMSGRRKANPQDKVHPNKAEFIRAKYQMLAFVHRLPCRDDDSVTAKDLSKQLHSSVRTGNLETCLRLLSLGAQANFFHPEKGNTPLHVASKAGQILQAELLAVYGADPGTQDSSGKTPVDYARQGGHHELAERLVEIQYELTDRLAFYLCGRKPDHKNGQHFIIPQMADSSLDLSELAKAAKKKLQSLSNHLFEELAMDVYDEVDRRETDAVWLATQNHSALVTETTVVPFLPVNPEYSSTRNQGRQKLARFNAHEFATLVIDILSDAKRRQQGSSLSGSKDNVELILKTINNQHSVESQDNDQPDYDSVASDEDTDLETTASKTNRQKSLDSDLSDGPVTVQEFMEVKNALVASEAKIQQLMKVNNNLSDELRIMQKKLQTLQSENSNLRKQATTNVYQVQTGSEYTDTSNHSSLKRRPSARGSRPMSMYETGSGQKPYLPMGEASRPEESRMRLQPFPAHIGRSALVTSSSSLPSFPSTLSWSRDESARRASRLEKQNSTPESDYDNTPNDMEPDGMGSSRKGRQRSMVWPGDGLVPDTAEPHVAPSPTLPSTEDVIRKTEQITKNIQELLRAAQENKHDSYIPCSERIHVAVTEMAALFPKKPKSDMVRTSLRLLTSSAYRLQSECKKTLPGDPGSPTDVQLVTQQVIQCAYDIAKAAKQLVTITTKENNN [GIT2]”, the “solubility in G1/S (log2)” value in the data set on HeLa Kyoto [1] came to 0.317. Besides, the melting temperature in the data set on HeLa Kyoto [2] (cell cycle stage: G1/S) was 48 °C; in the data set on HeLa Kyoto [2] (cell cycle stage: mitosis) it was 48.9 °C. Besides, the “solubility change mitosis (log2)” value in the data set with HeLa Kyoto [3] is -0.13. Further, the thermal stability score stood at 1.06 in the data set with HeLa Kyoto [4] (setting [5]) and 2.68 with HeLa Kyoto [4] (cell cycle stage: mitosis).
In the case of “MNSMKTEENKSFSAMEDDQRTRPEVSKDTVMKQTHADTPVDHCLSGIRKCSSTFKLKSEVNKHETALEMQNPNLNNKECCFTFTLNGNSRKLDRSVFTAYGKPSESIYSALSANDYFSERIKNQFNKNIIVYEEKTIDGHINLGMPLKCLPSDSHFKITFGQRKSSKEDGHILRQCENPNMECILFHVVAIGRTRKKIVKINELHEKGSKLCIYALKGETIEGALCKDGRFRSDIGEFEWKLKEGHKKIYGKQSMVDEVSGKVLEMDISKKKALQQKDIHKKIKQNESATDEINHQSLIQSKKKVHKPKKDGETKDVEHSREQILPPQDLSHYIKDKTRQTIPRIRNYYFCSLPRKYRQINSQVRRRPHLGRRYAINLDVQKEAINLLKNYQTLNEAIMHQYPNFKEEAQWVRKYFREEQKRMNLSPAKQFNIYKKDFGKMTANSVSVATCEQLTYYSKSVGFMQWDNNGNTGNATCFVFNGGYIFTCRHVVHLMVGKNTHPSLWPDIISKCAKVTFTYTEFCPTPDNWFSIEPWLKVSNENLDYAILKLKENGNAFPPGLWRQISPQPSTGLIYLIGHPEGQIKKIDGCTVIPLNERLKKYPNDCQDGLVDLYDTTSNVYCMFTQRSFLSEVWNTHTLSYDTCFSDGSSGSPVFNASGKLVALHTFGLFYQRGFNVHALIEFGYSMDSILCDIKKTNESLYKSLNDEKLETYDEEKGKQESSLQDHQIEPMEC [FAM111B]”, the “solubility in G1/S (log2)” value in the data set with HeLa Kyoto [1] was -0.274. Besides, the melting temperature amounted to 46.9 °C in the data set with HeLa Kyoto [2] (cell cycle stage: G1/S) and 50.3 °C with HeLa Kyoto [2] (cell cycle stage: mitosis). Besides, the “solubility change mitosis (log2)” value in the data set with HeLa Kyoto [3] was -7.96e-05. Besides, the thermal stability score is 2.69 in the data set on HeLa Kyoto [4] (setting [5]) and 4.09 in the data set on HeLa Kyoto [4] (cell cycle stage: mitosis).
